Reference: patent publication US20260286413A1, “HYALURONAN SYNTHESIS, SECRETION AND LENGTH CONTROL” (UNIVERSITY OF VIRGINIA, priority 2023, published 2026)
Numbering of substitutions follows the chain as printed. In names and notes the source's numbering stands.

T1: X1HAS1 (Xenopus laevis, UniProt P13563)
T1 construct: dodeca-histidine (His12) (N); made in house; host or cells: Spodoptera frugiperda Sf9 cells (baculovirus)
T1 sequence (P13563 1-588): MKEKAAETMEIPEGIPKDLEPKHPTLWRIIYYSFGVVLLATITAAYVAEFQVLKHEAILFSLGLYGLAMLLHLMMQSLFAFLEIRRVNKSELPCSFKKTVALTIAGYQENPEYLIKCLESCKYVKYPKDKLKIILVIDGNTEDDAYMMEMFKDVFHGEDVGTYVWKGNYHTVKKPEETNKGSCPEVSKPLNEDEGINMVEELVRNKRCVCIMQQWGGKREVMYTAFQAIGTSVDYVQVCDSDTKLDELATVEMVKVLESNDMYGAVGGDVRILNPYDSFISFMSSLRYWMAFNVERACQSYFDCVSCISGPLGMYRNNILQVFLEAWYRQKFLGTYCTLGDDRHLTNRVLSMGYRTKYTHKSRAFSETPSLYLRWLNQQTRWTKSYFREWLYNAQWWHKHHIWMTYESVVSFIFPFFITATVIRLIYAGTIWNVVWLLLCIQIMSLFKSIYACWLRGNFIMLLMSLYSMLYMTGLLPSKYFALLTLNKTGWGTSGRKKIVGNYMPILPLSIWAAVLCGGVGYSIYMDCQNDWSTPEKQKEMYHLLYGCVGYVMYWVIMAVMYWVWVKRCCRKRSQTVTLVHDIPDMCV

B1: W491A: X1HAS1 mutant, Trp491 of WGTSGRK/R motif replaced with Ala (protein, UniProt P13563 1-588, looked up, variant W491A)
Hyaluronan synthase 1: T1 sequence (P13563 1-588) with W491A
B2: R381A: X1HAS1 mutant, Arg381 of QxxRW motif replaced with Ala (protein, UniProt P13563 1-588, looked up, variant R381A)
Hyaluronan synthase 1: T1 sequence (P13563 1-588) with R381A
B3: R287K: X1HAS1 mutant, Arg287 replaced with Lys (protein, UniProt P13563 1-588, looked up, variant R287K)
Hyaluronan synthase 1: T1 sequence (P13563 1-588) with R287K
B4: K218R: X1HAS1 mutant, Lys218 replaced with Arg (protein, UniProt P13563 1-588, looked up, variant K218R)
Hyaluronan synthase 1: T1 sequence (P13563 1-588) with K218R
B5: R296K: X1HAS1 mutant, Arg296 replaced with Lys (protein, UniProt P13563 1-588, looked up, variant R296K)
Hyaluronan synthase 1: T1 sequence (P13563 1-588) with R296K
B6: H72F: X1HAS1 mutant, His72 replaced with Phe (protein, UniProt P13563 1-588, looked up, variant H72F)
Hyaluronan synthase 1: T1 sequence (P13563 1-588) with H72F
B7: C307A: X1HAS1 mutant, Cys307 replaced with Ala (protein, UniProt P13563 1-588, looked up, variant C307A)
Hyaluronan synthase 1: T1 sequence (P13563 1-588) with C307A
B8: C337S: X1HAS1 mutant, Cys337 replaced with Ser (protein, UniProt P13563 1-588, looked up, variant C337S)
Hyaluronan synthase 1: T1 sequence (P13563 1-588) with C337S
B9: R496A: X1HAS1 mutant, Arg496 replaced with Ala (protein, UniProt P13563 1-588, looked up, variant R496A)
Hyaluronan synthase 1: T1 sequence (P13563 1-588) with R496A
B10: R381K: X1HAS1 mutant, Arg381 replaced with Lys (protein, UniProt P13563 1-588, looked up, variant R381K)
Hyaluronan synthase 1: T1 sequence (P13563 1-588) with R381K
B11: W491F: X1HAS1 mutant, Trp491 replaced with Phe (protein, UniProt P13563 1-588, looked up, variant W491F)
Hyaluronan synthase 1: T1 sequence (P13563 1-588) with W491F
B12: K218A: X1HAS1 mutant, Lys218 replaced with Ala (protein, UniProt P13563 1-588, looked up, variant K218A)
Hyaluronan synthase 1: T1 sequence (P13563 1-588) with K218A
B13: K448R: X1HAS1 mutant, Lys448 replaced with Arg (protein, UniProt P13563 1-588, looked up, variant K448R)
Hyaluronan synthase 1: T1 sequence (P13563 1-588) with K448R
B14: R496K: X1HAS1 mutant, Arg496 replaced with Lys (protein, UniProt P13563 1-588, looked up, variant R496K)
Hyaluronan synthase 1: T1 sequence (P13563 1-588) with R496K
B15: C307S: X1HAS1 mutant, Cys307 replaced with Ser (protein, UniProt P13563 1-588, looked up, variant C307S)
Hyaluronan synthase 1: T1 sequence (P13563 1-588) with C307S
B16: T493S: X1HAS1 mutant, Thr493 replaced with Ser (protein, UniProt P13563 1-588, looked up, variant T493S)
Hyaluronan synthase 1: T1 sequence (P13563 1-588) with T493S
B17: T493A: X1HAS1 mutant, Thr493 replaced with Ala (protein, UniProt P13563 1-588, looked up, variant T493A)
Hyaluronan synthase 1: T1 sequence (P13563 1-588) with T493A
B18: R287A: X1HAS1 mutant, Arg287 replaced with Ala (protein, UniProt P13563 1-588, looked up, variant R287A)
Hyaluronan synthase 1: T1 sequence (P13563 1-588) with R287A
B19: R296A: X1HAS1 mutant, Arg296 replaced with Ala (protein, UniProt P13563 1-588, looked up, variant R296A)
Hyaluronan synthase 1: T1 sequence (P13563 1-588) with R296A
B20: H72A: X1HAS1 mutant, His72 replaced with Ala (protein, UniProt P13563 1-588, looked up, variant H72A)
Hyaluronan synthase 1: T1 sequence (P13563 1-588) with H72A
B21: K448A: X1HAS1 mutant, Lys448 replaced with Ala (protein, UniProt P13563 1-588, looked up, variant K448A)
Hyaluronan synthase 1: T1 sequence (P13563 1-588) with K448A

Columns and labels:
X1HAS1 [1] = biological target: T1, X1HAS1; experiment: Substrate turnover rate quantification (UDP release, enzyme-coupled assay); assay type: biochemical; settings: one substrate titrated at saturating concentration of the other; real-time quantification of released UDP; read-out: Michaelis-Menten constant
Method: (§1) UDP release during HA synthesis was quantified using an enzyme-coupled assay as previously described (10, 13). Depletion of NADH was monitored at 340 nm every 60 s for 3 hours at 37° C. in a SpectraMax instrument. The raw data was processed in MS Excel and a linear phase of each reaction was determined. The rate of NADH depletion was converted to pmoles of UDP released using a UDP standardized plot (FIG. S1C) for Michaelis-Menten constant determination using GraphPad Prism. For substrate turnover rate quantification of X1HAS1 mutants, pmoles of released UDP were converted to the number of corresponding substrate turnovers per molecule of X1HAS1, per minute. Data is presented relative to wild type activity. All experiments were performed in four to eight replicates and error bars represent standard deviation from the means.
(§2) HAS transfers the UDP-activated glycosyl unit (the donor sugar) to the non-reducing end of the nascent HA polymer (the acceptor sugar). This reaction generates UDP and elongated HA as reaction products (FIG. 1A). Catalytic activity can be assessed by monitoring the release of UDP in an enzyme-coupled reaction, as previously described (10, 13), or quantifying HA, either radiometrically or by dye staining following electrophoresis.

X1HAS1 [2] = experiment: as above; assay type: biochemical, Xenopus laevis; settings: UDP release; for substrate turnover rate / catalytic rate relative to WT: normalized to WT
Method: as §1, §2

X1HAS1 [3] = experiment: Electrophoretic HA size determination (agarose gel, Stains-all) of in vitro synthesized HA; assay type: biochemical, Xenopus laevis; settings: for HA product versus WT: short and long reactions (1 h or 8 h), not distinguished; for HA product versus WT, long reaction: 8 h synthesis reaction; for HA size difference versus WT product: from differences in electrophoretic mobility
Method: To assess the size of HA synthesized by X1HAS1, similar reaction conditions were applied to the ones described above. […] […] Controls were carried out by digesting the synthesized polymers with hyaluronidase. Synthesis reactions were mixed with SDS-PAGE loading dye and applied to a 1% agarose gel (Ultra-pure agarose, Invitrogen) casted in an Owl B2 system (ThermoFisher). […] After the run, the gel was equilibrated in 50% ethanol for 1.5 h and subjected to staining in 0.05% Stains-all (Sigma) in 50% ethanol overnight under light-protection. Post-staining background was reduced by soaking the gel in 20% ethanol for 3-7 days in the dark. The migration of the synthesized HA species was compared to HA standards from Streptococcus equi (Sigma), as well as enzymatically generated ladders: HA LoLadder and HA HiLadder (Hyalose).

Row | Molecule | substrate turnover / catalytic activity compared to WT (X1HAS1 [2]) | HA product versus WT, short reaction (X1HAS1 [3]) | HA product versus WT (X1HAS1 [3]) | substrate turnover rate / catalytic rate relative to WT (X1HAS1 [2]) | also measured
1 | O=C(O)[C@H]1O[C@H](OP(=O)(O)OP(=O)(O)OC[C@H]2O[C@@H](n3ccc(=O)[nH]c3=O)[C@H](O)[C@@H]2O)[C@H](O)[C@@H](O)[C@@H]1O [UDP-GlcA, reference compound] |  |  |  |  | Km (X1HAS1 [1]): ~370 µM
2 | B1 | abolished | abolishes HA biosynthesis |  |  | 
3 | B2 | cannot be replaced |  |  |  | 
4 | B3 |  |  | polydisperse |  | 
5 | B4 | abolishes |  | abolishes |  | 
6 | B5 |  |  | low molecular weight |  | 
7 | B6 |  | reduced length |  | about 10% | HA product versus WT, long reaction (X1HAS1 [3]): equivalent to or exceeding the HA length obtained from the WT enzyme
8 | B7 |  |  | low amounts of polydisperse HA |  | 
9 | B8 |  |  | slight length reduction |  | 
10 | B9 | abolishes catalytic activity |  |  |  | 
11 | B10 | cannot be replaced |  |  |  | 
12 | B11 | reduced | lower molecular weight product |  |  | 
13 | B12 | abolishes |  | abolishes |  | 
14 | B13 |  | reduced length |  | 50-75% | HA product versus WT, long reaction (X1HAS1 [3]): equivalent to or exceeding the HA length obtained from the WT enzyme; HA size difference versus WT product (X1HAS1 [3]): up to 0.5 MDa
15 | B14 |  | slightly increased length |  |  | HA product versus WT, long reaction (X1HAS1 [3]): greater polydispersity
16 | B15 |  |  | low amounts of polydisperse HA |  | 
17 | B16 |  | exceeding the size of the WT product |  | 20-25% | HA size difference versus WT product (X1HAS1 [3]): up to 0.5 MDa
18 | B17 |  | exceeding the size of the WT product |  | 20-25% | 
19 | B18 |  |  | short HA oligosaccharide species | about 15% | 
20 | B19 |  |  | short HA oligosaccharide species | ~30% | 
21 | B20 |  | reduced length |  | 50-75% | 
22 | B21 |  | reduced length |  | 50-75% | 
